Assay results from publication PMC2731889.

Molecular target: ArdA protein from the conjugative transposon Tn916 (Enterococcus faecalis)
Assay: crystal structure

## ArdA protein from the conjugative transposon Tn916 (natural protein)
  stoichiometry N: 2
